Experimental data taken from patent publication EP4813396A2 (Amphivena Therapeutics, Inc., dated 2026).

B1: CD33/CD3 tandem diabody 07 (bispecific antibody)
chain: DIQMTQSPSSLSASVGDRVTITCRSSTGAVTTSNYANWVQQKPGKAPKALIGGTNKRAPGVPSRFSGSLIGDKATLTISSLQPEDFATYYCALWYSNLWVFGQGTKVEIKGGSGGSQVQLQESGGGVVQPGRSLRLSCAASGFSFSNYGIHWVRQAPGKGLEWVALISYDGNKKFYADSVKGRFAISRDTSKNTVDLQMTSLRPEDTAVYYCAKDRLESAAFDYWGQGTLVTVSSGGSGGSSYELTQPPSVSVAPGQTAMITCGGNNIGSTTVHWYQQKPGQAPVLVVYDDNERPSGIPERFSGSNSGSTATLTINRVEAGDEADYYCQVWDSGSDHVVFGGGTKLTVLGGSGGSEVQLVESGGGLVQPGGSLRLSCAASGFTFSTYAMNWVRQAPGKGLEWVGRIRSKYNNYATYYADSVKDRFTISRDDSKNSLYLQMNSLKTEDTAVYYCARHGNFGNSYVSYFAYWGQGTLVTVSSAAAGSHHHHHH
notes: Non-covalent homodimer; domain order 1; also called TandAb 07; tandem diabody 7
B2: CD33/CD3 tandem diabody 13 (bispecific antibody)
chain: DIQMTQSPSSLSASVGDRVTITCRSSTGAVTTSNYANWVQQKPGKAPKGLIGGTNKRAPGVPSRFSGSLIGTDFTLTISSLQPEDFATYYCALWYSNLWVFGQGTKVEIKGGSGGSQVQLVQSGAEVKKPGASVKVSCKASGYTFTSYDINWVRQAPGQGLEWMGWMNPNSGNTGFAQKFQGRVTMTRDTSTSTVYMELSSLRSEDTAVYYCARDRAVTDYYYGMDVWGQGTLVTVSSGGSGQSVLTQPPSASGTPGQRVTISCSGSRSNIGSNTVNWYQQLPGTAPKLLIYGNNQRPSGVPDRFSGSKSGTSASLAISGLQSEDEADYYCATWDDSLIGWVFGGGTKLTVLGGSGGSEVQLVESGGGLVQPGGSLRLSCAASGFTFSTYAMNWVRQAPGKGLEWVGRIRSKYNNYATYYADSVKDRFTISRDDSKNSLYLQMNSLKTEDTAVYYCARHGNFGNSYVSWFAYWGQGTLVTVSS
notes: Non-covalent homodimer; domain order 1; also called TandAb 13
B3: CD33/CD3 tandem diabody 17 (bispecific antibody)
chain: DIQMTQSPSSLSASVGDRVTITCRSSTGAVTTSNYANWVQQKPGKAPKALIGGTNKRAPGVPSRFSGSLIGDKATLTISSLQPEDFATYYCALWYSNLWVFGQGTKVEIKGGSGGSQVQLVQSGAEVKKPGESLKISCKGSGYSFTSYWIGWVRQMPGKGLEWMGIIYPGDSDTRYSPSFQGQVTISADKSISTAYLQWSSLKASDTAMYYCARHKRGSDAFDIWGQGTTVTVSSGGSGQSVLTQPPSVSGAPGQRVTISCTGSSSNIGAGYDVHWYQQLPGTAPKLLIYGNSNRPSGVPDRFSGSKSGTSASLAITGLQAEDEADYYCQSYDSSLSDVVFGGGTKLTVLGGSGGSEVQLVESGGGLVQPGGSLRLSCAASGFTFSTYAMNWVRQAPGKGLEWVGRIRSKYNNYATYYADSVKDRFTISRDDSKNSLYLQMNSLKTEDTAVYYCARHGNFGNSYVSYFAYWGQGTLVTVSSAAAGSHHHHHH
notes: Non-covalent homodimer; domain order 1; also called TandAb 17

What follows are binders tested against T1, human CD3 on T cells (human, UniProt P07766 23-207) (assay: flow cytometry, titration on human CD3+ T cells (Jurkat per paragraph 124/paragraph 125)).
T1 construct: whole, on cells; also called hu CD3; CD3 on Jurkat cells
T1 sequence (P07766 23-207): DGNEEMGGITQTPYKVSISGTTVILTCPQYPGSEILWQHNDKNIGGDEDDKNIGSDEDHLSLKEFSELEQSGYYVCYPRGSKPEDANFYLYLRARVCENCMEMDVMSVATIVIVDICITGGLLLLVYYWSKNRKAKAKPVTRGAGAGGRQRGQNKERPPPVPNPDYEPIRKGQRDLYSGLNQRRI

Binder	Kd [nM]
B1	49.7
B2	55.7
B3	3.3

Each binder was assayed against T2, human CD33 on cells (human, UniProt P20138 18-364) (assay: flow cytometry, HL-60 cells).
T2 construct: whole, on cells; also called huCD33
T2 sequence (P20138 18-364): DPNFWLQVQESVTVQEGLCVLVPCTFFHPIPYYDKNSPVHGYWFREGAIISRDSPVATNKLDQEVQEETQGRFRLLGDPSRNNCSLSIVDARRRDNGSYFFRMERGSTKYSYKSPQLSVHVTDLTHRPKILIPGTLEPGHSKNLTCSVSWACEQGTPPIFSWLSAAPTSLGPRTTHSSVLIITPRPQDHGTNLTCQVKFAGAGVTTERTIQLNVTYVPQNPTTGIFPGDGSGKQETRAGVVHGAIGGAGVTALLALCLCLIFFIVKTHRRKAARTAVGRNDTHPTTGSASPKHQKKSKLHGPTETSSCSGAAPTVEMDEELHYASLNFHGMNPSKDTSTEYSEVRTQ

Binder	Kd [nM]
B1	13.7
B2	0.2
B3	5

The binders below were run against T1, human CD3 on T cells (assay: flow cytometry, human T-cells (as headed in Table 10)).

Binder	Kd [nM]
B1	49.7
B2	55.7
B3	3.3

These binders were tested against T2, human CD33 on cells (assay: flow cytometry, titration on KG-1 cells).

Binder	Kd [nM]
B1	47.9
B2	0.3
B3	52.5

These binders were tested against T1, human CD3 on T cells (assay: cell-based or functional assay).

Binder	CD25 Induction EC50 (pM)	CD69 Induction EC50 (pM)	T cell Proliferation in PBMC EC50 (pM)
B1	134	65	50
B2	30	22	23
B3	30	114	30

The binders below were run against T2, human CD33 on cells (assay: flow cytometry, titration on HL-60 cells).

Binder	Kd [nM]
B1	13.7
B2	0.2
B3	5

These binders were tested against T2, human CD33 on cells (assay: flow cytometry, titration on U-937 cells).

Binder	Kd [nM]
B1	47.1
B2	0.5
B3	24.4

Each binder was assayed against T2, human CD33 on cells (assay: cell-based or functional assay).

Binder	EC50 on HL-60 [pM] (cytotoxicity)
B1	17.8
B2	1.1
B3	18.4

Each binder was assayed against cynomolgus CD33 on CHO cells (cynomolgus monkey) (assay: flow cytometry; KD on CHO-cynomolgus CD33 cells divided by KD on CHO-human CD33 cells).

Binder	KD ratio cynoCD33/ huCD33
B1	45.8
B2	1.6
B3	1.9
